How the values were obtained:
[1] = biological target: T1, human Siglec15 on human-siglec15-2D3-1E1 cells (human, UniProt Q6ZMC9 20-328); assay: cell based binding FACS on human-siglec15-2D3-1E1 cells
T1 construct: whole, on cells; Transfected HEK-293 cells; also called cell surface human Siglec15
T1 sequence (looked up): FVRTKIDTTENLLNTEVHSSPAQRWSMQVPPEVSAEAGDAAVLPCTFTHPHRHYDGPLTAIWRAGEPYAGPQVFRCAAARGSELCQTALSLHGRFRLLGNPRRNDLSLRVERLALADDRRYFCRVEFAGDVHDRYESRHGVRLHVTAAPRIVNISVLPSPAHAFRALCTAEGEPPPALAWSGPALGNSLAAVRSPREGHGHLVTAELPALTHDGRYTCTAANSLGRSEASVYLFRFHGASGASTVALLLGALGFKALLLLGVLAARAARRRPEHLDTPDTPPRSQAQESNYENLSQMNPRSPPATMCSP
Experimental: The binding activities of the anti-Siglec15 antibodies to cell surface Siglec15 were tested by flow cytometry (FACS), using in-house prepared human-siglec15-2D3-1E1 cells expressing human Siglec15 (amino acid residues Met1-Pro328 of uniprot #Q6ZMC9) on cell membranes. The human-siglec15-2D3-1E1 cells were prepared by transfecting HEK-293 cells (ATCC #CRL-1573) with pCMV-T-P plasmids inserted with human Siglec15 coding sequence between EcoRI and XbaI sites, following the instruction of lipofectamine 3000 transfection reagent (Thermo Fisher). The human-siglec15-2D3-1E1 cells were harvested from cell culture flasks, washed twice and re-suspended in phosphate buffered saline (PBS) containing 2% v/v Fetal Bovine Serum (FACS buffer). 2×10⁵ cells per well in 96 well-plates were incubated in 100 μL serially diluted anti-Siglec15 antibodies or controls (starting at 66.67 nM, 5-fold serial dilution) in FACS buffer for 40 minutes on ice. […] Following a 40-minute incubation at 4° C. in dark, cells were washed three times and re-suspended in FACS buffer. Fluorescence was measured using a Becton Dickinson FACS Canto II-HTS equipment. Data was analyzed using Graphpad Prism software and EC₅₀ values were reported.

[2] = biological target: T2, human Siglec15-Fc protein (human); assay: competitive ELISA: biotin-labeled human Siglec15-Fc in solution, competitor coated benchmark; falling curve, table row is labelled EC50
T2 construct: In house made; also called recombinant human Siglec15 protein with human IgG1 Fc at the C-terminus
T2 sequence (chain, as listed by the source limits assumed): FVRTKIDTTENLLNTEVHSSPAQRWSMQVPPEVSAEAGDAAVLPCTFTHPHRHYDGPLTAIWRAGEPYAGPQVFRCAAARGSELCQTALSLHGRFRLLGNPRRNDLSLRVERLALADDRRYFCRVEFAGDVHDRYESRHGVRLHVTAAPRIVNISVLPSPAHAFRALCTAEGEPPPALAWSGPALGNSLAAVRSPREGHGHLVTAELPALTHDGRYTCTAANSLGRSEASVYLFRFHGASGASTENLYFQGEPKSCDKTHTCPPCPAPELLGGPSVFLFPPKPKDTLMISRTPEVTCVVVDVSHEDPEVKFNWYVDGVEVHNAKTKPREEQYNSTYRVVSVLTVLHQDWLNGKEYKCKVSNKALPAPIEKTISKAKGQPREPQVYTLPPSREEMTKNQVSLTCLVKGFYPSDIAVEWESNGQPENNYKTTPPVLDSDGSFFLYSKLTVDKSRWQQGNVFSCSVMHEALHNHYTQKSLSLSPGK
Experimental: The abilities of the anti-Siglec15 antibodies of the disclosure to block benchmark-human Siglec15 binding were measured in a competitive ELISA assay. Briefly, the benchmark was coated on 96-well micro plates at 2 μg/mL in PBS, 100 μl per well, and incubated for 2 hours at 37° C. Then plates were washed once with wash buffer, and blocked with 5% w/v non-fatty milk in PBST overnight at 4° C. The next day, the anti-Siglec15 antibodies of the disclosure or controls were diluted with biotin labeled human Siglec15-Fc protein (prepared in-house with SEQ ID NO: 19, 37 ng/ml in PBST with 2.5% w/v non-fatty milk), starting at 80 nM with a 4-fold serial dilution, and incubated at room temperature for 40 minutes. After plate washing 4 times, the antibody/Siglec15-Fc mixtures were added to benchmark coated plates, 100 μl per well. After incubation at 37° C. for 40 minutes, plates were washed 4 times again using wash buffer. Then the plates were added and incubated with 100 μl/well streptavidin conjugated HRP for 40 minutes at 37° C. […] Finally, TMB was added and the reaction was stopped using 1M H₂SO₄, and the absorbance of each well was read on a microplate reader using dual wavelength mode with 450 nm for TMB and 630 nm as the reference wavelength, then the OD (450-630) values were plotted against antibody concentration. Data was analyzed using Graphpad Prism software and IC₅₀ values were reported.

[3] = biological target: T3, cynomolgus monkey Siglec15-his protein (cynomolgus monkey); assay: indirect ELISA on coated cynomolgus Siglec15-his
T3 construct: In house made; also called Cynomolgus Siglec15-his; cynomolgus Siglec15
T3 chain: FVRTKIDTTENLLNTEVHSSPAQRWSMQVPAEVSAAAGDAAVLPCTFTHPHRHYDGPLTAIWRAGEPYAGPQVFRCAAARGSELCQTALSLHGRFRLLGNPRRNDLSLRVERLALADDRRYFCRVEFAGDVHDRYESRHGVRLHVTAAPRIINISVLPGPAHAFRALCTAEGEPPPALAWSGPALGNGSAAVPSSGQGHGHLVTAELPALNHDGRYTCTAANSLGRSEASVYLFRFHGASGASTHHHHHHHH
Experimental: The anti-Siglec15 antibodies' cross-reactions to cynomolgus or mouse Siglec15 proteins were measured. Briefly, 96-well micro plates were coated with 100 μl of 2 μg/ml cynomolgus Siglec15-his protein (in house made with SEQ ID NO: 21), or 2 μg/ml mouse Siglec15-his protein (in house made with SEQ ID NO: 22) in carbonate/bicarbonate buffer (pH 9.6) for 2 hours at 37° C. ELISA plates were washed once with wash buffer (PBS+0.05% v/v Tween-20, PBST) and then blocked with 200 μl/well blocking buffer (5% w/v non-fatty milk in PBST) overnight at 4° C. Plates were washed 4 times and incubated with 100 μl serially diluted anti-Siglec15 antibodies of the disclosure or controls (starting at 66.7 nM, 5-fold serial dilution in PBST with 2.5% w/v non-fatty milk) for 40 minutes at 37° C. […] The reaction was stopped 4 minutes later at room temperature with 50 μl 1M H₂SO₄, and the absorbance of each well was read on a microplate reader using dual wavelength mode with 450 nm for TMB and 630 nm as the reference wavelength, then the OD (450-630) values were plotted against antibody concentration. Data was analyzed using Graphpad Prism software and EC₅₀ values were reported.

- EC50 [1]: 19800 pM
- IC50 [2]: 486 pM
- EC50 [3]: 461 pM
B1: anti-Siglec15 benchmark (ch5G12) (antibody, human IgG1, kappa, V domains shown)
VH: QVQLQQPGAELVKPGASVKMSCKASGYTFTSYWITWVIQRPGQGLEWIGDIYCGSDTMHYNEKFKNKATLTVDTSSSTAYMQLSSLTSEDSAVYYCARWWDYGSSYDYFDYWGQGTTLTVSS
VL: DIKMTQSPSSMYASLGERVTITCKASQDINSYLSWFQQKPGKSPKTLIYRANRLVDGVPSRFSGSGSGQDYSLTISSLEYEDMGIYYCLQYDEFPYTFGGGTKLEIKR
notes: ch5G12 (US 20190202912A1); also called BM; Siglec15-ch5G9

— patent US20230106715A1 (BIOSION, published 2023)
